Results as given in patent US5968509.

Target: human CD3 antigen (human) (UniProt P07766)
Test: competitive flow cytometry on HPBALL cells; competitor: biotinylated monovalent humanised CD3 Mab

Sequence of UniProt P07766 (P07766 23-207): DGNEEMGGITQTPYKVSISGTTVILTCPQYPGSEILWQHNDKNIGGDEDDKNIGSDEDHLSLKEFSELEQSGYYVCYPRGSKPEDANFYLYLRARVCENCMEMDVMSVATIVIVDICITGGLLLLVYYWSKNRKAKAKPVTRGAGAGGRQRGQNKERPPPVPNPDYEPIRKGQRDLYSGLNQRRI

fold concentration for 50% competition, against rat YTH12.5 Mab: 1.3 fold
B1: humanised bivalent CD3 Mab (antibody, V domains shown)
VH: EVQLLESGGGLVQPGGSLRLSCAASGFTFSSFPMAWVRQAPGKGLEWVSTISTSGGRTYYRDSVKGRFTISRDNSKNTLYLQMNSLRAEDTAVYYCAKFRQYSGGFDYWGQGTLVTVSS
VL: DFMLTQPHSVSESPGKTVIISCTLSSGNIENNYVHWYQQRPGRAPTTVIFDDDKRPDGVPDRFSGSIDRSSNSASLTISGLQTEDEADYYCHSYVSSFNVFGGGTKLTVL
